“And” between values parts separate entries of the source, which are not always exact repeats. Equal entries are not always repeated.
Target: the molecule itself
Test: SEC; Superdex 200 10/300 GL, 10 mM HEPES pH 7.8, 150 mM NaCl, typically 0.5 mg applied; holoprotein (FAD bound) as purified; Gaussian deconvolution of the profile

Protein	stoichiometry N
glutaryl-coenzyme A (CoA) dehydrogenase, wild-type (GCDH-WT) (enzyme, human, human glutaryl-CoA dehydrogenase (GCDH), recombinant; source: E. coli BL21 (DE3), soluble extract incubated overnight with excess FAD, purified (HisTrap HP)) EFDWQDPLVLEEQLTTDEILIRDTFRTYCQERLMPRILLANRNEVFHREIISEMGELGVLGPTIKGYGCAGVSSVAYGLLARELERVDSGYRSAMSVQSSLVMHPIYAYGSEEQRQKYLPQLAKGELLGCFGLTEPNSGSDPSSMETRAHYNSSNKSYTLNGTKTWITNSPMADLFVVWARCEDGCIRGFLLEKGMRGLSAPRIQGKFSLRASATGMIIMDGVEVPEENVLPGASSLGGPFGCLNNARYGIAWGVLGASEFCLHTARQYALDRMQFGVPLARNQLIQKKLADMLTEITLGLHACLQLGRLKDQDKAAPEMVSLLKRNNCGKALDIARQARDMLGGNGISDEYHVIRHAMNLEAVNTYEGTHDIHALILGRAITGIQAFTASK	4
GCDH-p.Val400Met clinical variant (enzyme, human, human glutaryl-CoA dehydrogenase (GCDH), disease variant p.Val400Met of glutaric aciduria type I, recombinant; The assays tell the states apart; also called holo GCDH-p.Val400Met; apo GCDH-p.Val400Met; source: E. coli BL21 (DE3), purified (HisTrap HP); holo form from soluble extract incubated overnight with excess FAD, apo form without the FAD incubation) EFDWQDPLVLEEQLTTDEILIRDTFRTYCQERLMPRILLANRNEVFHREIISEMGELGVLGPTIKGYGCAGVSSVAYGLLARELERVDSGYRSAMSVQSSLVMHPIYAYGSEEQRQKYLPQLAKGELLGCFGLTEPNSGSDPSSMETRAHYNSSNKSYTLNGTKTWITNSPMADLFVVWARCEDGCIRGFLLEKGMRGLSAPRIQGKFSLRASATGMIIMDGVEVPEENVLPGASSLGGPFGCLNNARYGIAWGVLGASEFCLHTARQYALDRMQFGVPLARNQLIQKKLADMLTEITLGLHACLQLGRLKDQDKAAPEMVSLLKRNNCGKALDIARQARDMLGGNGISDEYHMIRHAMNLEAVNTYEGTHDIHALILGRAITGIQAFTASK	4 and 2

Source: publication PMC7583906, “Functional Recovery of a GCDH Variant Associated to Severe Deflavinylation—Molecular Insights into Potential Beneficial Effects of Riboflavin Supplementation in Glutaric Aciduria-Type I Patients” (International Journal of Molecular Sciences, 2020)
